According to the supplement of paper PMC6757056:
± gives the standard deviation of the averaged measurements.

B1: library; a variant is named by its letters at N, in order (parent)
chain: GCUGUCACCGAGAAACUGUGAAGUAUAUCUUAAACCUGGGCACUUAAAAGAUAUAUGGAGUUAGUAGUGCAACCUGCUCGGUCUGAUGAGUCCNNNNNNGGACGAAACAGC

How the values were obtained:
[1] = variants of: B1; experiment: normalized RNA/DNA level without ligand (relative to sTRSVctl = 100) (log10 (% of sTRSVctl)); HEK293T; ligand: cyclic di-GMP (c-di-GMP-II aptamer); higher = less ribozyme self-cleavage, higher mRNA level; details: reporter: mCherry (pCS4076), ligand present: no
How it was run: (§1)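 Library plasmids carrying ribozyme switches linked to mCherry, or to eGFP in some ligand experiments, were transfected into HEK293T at 4 µg per 6-well well, with any ligand added 1 h earlier. Seventy-two hours on, total RNA was extracted with EDTA and reverse-transcribed, amplified, barcoded and sequenced. RNA level was RNA over DNA reads normalized to a spiked-in non-cleaving sequence or to the top sequences, then scaled and log-transformed. The top set was 25 sequences, the transform was ×100 and log10, and sequences needed ≥100 DNA reads.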

[2] = variants of: B1; experiment: normalized RNA/DNA level with ligand (relative to sTRSVctl = 100) (log10 (% of sTRSVctl)); HEK293T; ligand: cyclic di-GMP (c-di-GMP-II aptamer); ligand concentration (+) RNA-Seq: 1 mM; higher = less ribozyme self-cleavage, higher mRNA level; details: reporter: mCherry (pCS4076), ligand present: yes
How it was run: as §1

[3] = variants of: B1; experiment: FACS-Seq fitted mean relative fluorescence mCherry/BFP without ligand (log10 relative fluorescence); HEK293T; ligand: cyclic di-GMP (c-di-GMP-II aptamer); higher = higher reporter protein expression; details: ligand present: no
How it was run: (§2)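 The ribozyme switch sat in an mCherry reporter, delivered by lentivirus into HEK293T libraries along with an EF1α-BFP marker. Enriched cells were incubated 48 h with or without ligand, sorted into 6 bins by mCherry/BFP, and bin genomic DNA was PCR-amplified, barcoded and MiSeq-sequenced. Fluorescence equals the fitted normal mean of the bin counts after normalization. Those log10(mCherry/BFP) means were scaled to five spiked-in control ribozymes.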

[4] = variants of: B1; experiment: FACS-Seq fitted mean relative fluorescence mCherry/BFP with ligand (log10 relative fluorescence); HEK293T; ligand: cyclic di-GMP (c-di-GMP-II aptamer); ligand concentration (+) FACS-Seq: 1 mM; higher = higher reporter protein expression; details: ligand present: yes
How it was run: as §2

Variant	normalized RNA/DNA level without ligand (log10) [1]	normalized RNA/DNA level with ligand (log10) [2]	FACS-Seq fitted mean (log10) [3]	FACS-Seq fitted mean (log10) [4]
CACCUG	1.76 ± 0.023	1.85 ± 0.06	–	–
GUCACU	1.708 ± 0.0022	1.85 ± 0.08	-0.159 ± 0.13	0.131 ± 0.035
AGUGCG	1.7 ± 0.058	1.85 ± 0.095	–	–
UUCAUG	1.698 ± 0.013	1.83 ± 0.087	–	–
ACAACA	1.46 ± 0.076	1.68 ± 0.099	–	–
AUCGAC	1.631 ± 0.012	1.8 ± 0.075	–	–
GGUAAC	1.743 ± 0.0073	1.85 ± 0.077	–	–
AGGCCC	1.86 ± 0.05	1.95 ± 0.1	–	–
CGGUUG	1.68 ± 0.14	1.812 ± 0.013	–	–
UACCCC	1.7914 ± 0.0016	1.89 ± 0.11	–	–
UCGGAA	1.34 ± 0.14	1.49 ± 0.11	-0.484 ± 0.069	-0.286 ± 0.048
GCGUUU	1.6 ± 0.026	1.77 ± 0.14	-0.452 ± 0.069	-0.302 ± 0.06
GCAGAG	1.4 ± 0.08	1.58 ± 0.043	-0.424 ± 0.029	-0.199 ± 0.03
UGGUAC	1.684 ± 0.015	1.83 ± 0.092	–	–
UGGUAU	1.661 ± 0.013	1.82 ± 0.13	–	–
UGCGCC	1.79 ± 0.046	1.92 ± 0.094	–	–
UGGUCC	1.86 ± 0.085	1.98 ± 0.085	–	–
GGGAGU	1.67 ± 0.071	1.72 ± 0.16	–	–
AGGUAG	1.54 ± 0.034	1.66 ± 0.046	–	–
CGUAUU	1.33 ± 0.083	1.57 ± 0.11	–	–
CAGUUU	1.5 ± 0.0081	1.67 ± 0.12	-0.341 ± 0.0054	-0.0345 ± 0.033
UACCUG	1.724 ± 0.0039	1.87 ± 0.091	–	–
AUUGUG	1.605 ± 0.014	1.84 ± 0.11	–	–
CUCGGA	1.58 ± 0.076	1.81 ± 0.14	-0.14 ± 0.19	0.203 ± 0.14

Variant	normalized RNA/DNA level without ligand (log10) [1]	normalized RNA/DNA level with ligand (log10) [2]	FACS-Seq fitted mean (log10) [3]	FACS-Seq fitted mean (log10) [4]
AGUUCG	1.69 ± 0.021	1.79 ± 0.11	–	–
GCUAAA	1.46 ± 0.085	1.67 ± 0.11	–	–
GCUAAC	1.49 ± 0.023	1.7 ± 0.15	–	–
UCGCAC	1.697 ± 0.015	1.86 ± 0.084	–	–
GAAAUU	1.5921 ± 0.00088	1.78 ± 0.11	-0.0957 ± 0.14	0.215 ± 0.096
GAAAUC	1.659 ± 0.012	1.81 ± 0.11	–	–
GAGGCC	1.7859 ± 0.0011	1.89 ± 0.048	–	–
GAGGCG	1.817 ± 0.018	1.9 ± 0.14	–	–
UUUAAC	1.7 ± 0.022	1.84 ± 0.099	0.0586 ± 0.15	0.264 ± 0.026
UGUCCG	1.856 ± 0.0053	1.95 ± 0.042	–	–
UGUCCU	1.7541 ± 0.0017	1.89 ± 0.1	-0.0961 ± 0.059	0.158 ± 0.027
GACAGA	1.52 ± 0.065	1.7 ± 0.068	-0.179 ± 0.21	0.0814 ± 0.049
GAACGU	1.54 ± 0.095	1.69 ± 0.092	-0.419 ± 0.027	-0.133 ± 0.0044
AUGUUG	1.56 ± 0.036	1.72 ± 0.14	–	–
AUGUUA	1.523 ± 0.0094	1.73 ± 0.1	-0.342 ± 0.13	-0.0703 ± 0.042
CUGUGA	1.54 ± 0.075	1.77 ± 0.081	–	–
ACAGAA	1.29 ± 0.15	1.47 ± 0.071	-0.5622 ± 0.0028	-0.287 ± 0.057
GGGAUA	1.54 ± 0.19	1.66 ± 0.044	–	–
GCUCCA	1.7142 ± 0.0002	1.83 ± 0.1	–	–
AAUACU	1.71 ± 0.023	1.84 ± 0.085	–	–
GCUAUU	1.568 ± 0.0067	1.74 ± 0.12	–	–
CGUGGG	1.62 ± 0.058	1.8 ± 0.073	–	–
UCACGU	1.6 ± 0.044	1.79 ± 0.074	-0.191 ± 0.32	0.0669 ± 0.07
CACCCA	1.59 ± 0.097	1.75 ± 0.077	–	–
